In patent US20240101716A1:

Molecular target: PD-L1 (blocking assay of Example 11) (UniProt Q9NZQ7)
Sequence (Q9NZQ7 19-239 limits assumed): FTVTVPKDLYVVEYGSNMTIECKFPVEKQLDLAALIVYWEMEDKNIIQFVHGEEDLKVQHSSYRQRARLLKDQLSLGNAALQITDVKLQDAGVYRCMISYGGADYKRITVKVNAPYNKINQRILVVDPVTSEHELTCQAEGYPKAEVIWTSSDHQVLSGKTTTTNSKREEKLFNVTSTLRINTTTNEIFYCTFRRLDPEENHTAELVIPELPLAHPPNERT

Substance | EC50 printed for a flat curve: luminescence stays at the baseline of about 50000 RLU up to Log10 about 2.2 nM (no blockade), PD-1/PD-L1 Blockade Assay | EC50, luminescence (RLU) in the PD-1/PD-L1 Blockade Assay
Human IgG1 (antibody) | 39.5 pM | 
Tecentriq (antibody) |  | 0.318 nM
